Results on 7 molecules are retold here after US9023351.

Sequences and labels used below:
B1: MOR06638 IgG (antibody, V domains shown)
VH: QVQLVQSGAEVKKPGASVKVSCKASGYTFTGNYINWVRQAPGQGLEWMGIINPHGGDTKYAQKFQGRVTMTRDTSISTAYMELSSLRSEDTAVYYCARWHHGTWIFDYWGQGTLVTVSS
VL: DIVLTQPPSVSGAPGQRVTISCSGSSSNIGSNYVSWYQQLPGTAPKLLIYNDNQRPSGVPDRFSGSKSGTSASLAITGLQSEDEADYYCSSWDRADGSYVFGGGTKLTVL
B2: MOR06643 IgG (antibody, V domains shown)
VH: QVQLVESGGGLVQPGGSLRLSCAASGFTFSDYAMSWVRQAPGKGLEWVSAIMYDSSSTFYADSVKGRFTISRDNSKNTLYLQMNSLRAEDTAVYYCARINYIYKGVHFDYWGQGTLVTVSS
VL: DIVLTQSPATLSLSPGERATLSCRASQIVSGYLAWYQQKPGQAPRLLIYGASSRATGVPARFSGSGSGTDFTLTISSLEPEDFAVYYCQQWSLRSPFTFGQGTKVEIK
B3: MOR06631 IgG (antibody, V domains shown)
VH: QVQLVQSGAEVKKPGESLKISCKGSGYSFTNYWIGWVRQMPGKGLEWMGFIWPVDSWTQYSPSFQGQVTISADKSISTAYLQWSSLKASDTAMYYCARYGHGMYGGALDVWGQGTLVTVSS
VL: DIVLTQSPATLSLSPGERATLSCRASQSVRSSRLAWYQQKPGQAPRLLIYGASKRATGVPARFSGSGSGTDFTLTISSLEPEDFATYYCQQYYDFPPTFGQGTKVEIK
B4: MOR06669 IgG (antibody, V domains shown)
VH: QVQLVQSGAEVKKPGESLKISCKGSGYSFTNYWIGWVRQMPGKGLEWMGIIWPIDSFTQYSPSFQGQVTISADKSISTAYLQWSSLKASDTAMYYCARYGHGMYGGALDVWGQGTLVTVSS
VL: DIVLTQSPATLSLSPGERATLSCRASQSVRSSRLAWYQQKPGQAPRLLIYGASKRATGVPARFSGSGSGTDFTLTISSLEPEDFATYYCQQYYDFPPTFGQGTKVEIK
B5: MOR07111 IgG (antibody, V domains shown)
VH: QVQLVQSGAEVKKPGESLKISCKGSGYSFTNYWIGWVRQMPGKGLEWMGVIMPSDSYTRYSPSFQGQVTISADKSISTAYLQWSSLKASDTAMYYCARYGHGMYGGALDVWGQGTLVTVSS
VL: DIVLTQSPATLSLSPGERATLSCRASQSVRSSRLAWYQQKPGQAPRLLIYGASKRATGVPARFSGSGSGTDFTLTISSLEPEDFAVYYCQQFYSKPITFGQGTKVEIK
B6: MOR06642 IgG (antibody, V domains shown)
VH: QVQLVQSGAEVKKPGESLKISCKGSGYSFTNYWIGWVRQMPGKGLEWMGVIMPSDSYTRYSPSFQGQVTISADKSISTAYLQWSSLKASDTAMYYCARYGHGMYGGALDVWGQGTLVTVSS
VL: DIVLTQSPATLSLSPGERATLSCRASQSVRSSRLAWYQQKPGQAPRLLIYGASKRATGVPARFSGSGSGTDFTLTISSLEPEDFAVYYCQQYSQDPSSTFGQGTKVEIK
B7: MOR07265 IgG (antibody, V domains shown)
VH: QVQLVQSGAEVKKPGESLKISCKGSGYSFTNYWIGWVRQMPGKGLEWMGFIWPVDSWTQYSPSFQGQVTISADKSISTAYLQWSSLKASDTAMYYCARYGHGMYGGALDVWGQGTLVTVSS
VL: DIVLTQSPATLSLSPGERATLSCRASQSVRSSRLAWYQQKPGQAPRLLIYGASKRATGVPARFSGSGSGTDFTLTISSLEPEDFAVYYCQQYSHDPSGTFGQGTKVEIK

The target in this test is human mesothelin (human, UniProt Q13421). Briefly: FACS, OVCAR-3 cells. Background: In flow cytometry, cells or beads pass a laser one at a time.
Chain of human mesothelin (Q13421 other isoform, or with tags, fused parts or gaps): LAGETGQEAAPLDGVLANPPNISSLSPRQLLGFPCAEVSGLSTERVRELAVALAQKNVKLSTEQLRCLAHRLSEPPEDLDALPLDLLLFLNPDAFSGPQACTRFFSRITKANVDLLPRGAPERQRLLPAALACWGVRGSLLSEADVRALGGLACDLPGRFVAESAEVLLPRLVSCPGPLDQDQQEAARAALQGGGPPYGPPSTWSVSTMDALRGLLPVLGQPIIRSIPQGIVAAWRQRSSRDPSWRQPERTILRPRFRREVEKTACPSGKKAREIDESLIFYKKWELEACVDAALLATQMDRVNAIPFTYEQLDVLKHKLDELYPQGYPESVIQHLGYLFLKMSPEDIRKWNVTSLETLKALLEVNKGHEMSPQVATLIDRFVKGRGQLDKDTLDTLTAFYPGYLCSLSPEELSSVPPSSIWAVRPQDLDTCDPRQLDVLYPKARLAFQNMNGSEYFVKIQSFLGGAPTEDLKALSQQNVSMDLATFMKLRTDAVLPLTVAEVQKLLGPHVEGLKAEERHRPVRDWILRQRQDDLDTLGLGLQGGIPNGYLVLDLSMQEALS
The EC50 is the midpoint of the concentration-response curve. Low values mean greater potency, high ones weaker potency. B1: the EC50 came to 4.19 nM. This lies in the single-digit nanomolar range.

B2 came in with an EC50 of 1.86 nM.

Take B3: a half-maximal effect (EC50) was put at 0.96 nM.

The molecule B4 showed an EC50 of 1.4 nM.

Take B5: the concentration for a half-maximal effect (EC50) amounted to 1.35 nM.

B6 displayed an EC50 of 0.54 nM.

Take B7: the 50% effective concentration (EC50) worked out at 1.06 nM.
